Measured values taken from article doi:10.1101/2025.05.15.654344 (bioRxiv, 2025).

B1: D-dopachrome tautomerase (D-DT or MIF-2), wild type (natural protein, human, UniProt P30046 1-118, looked up)
chain: MPFLELDTNLPANRVPAGLEKRLCAAAASILGKPADRVNVTVRPGLAMALSGSTEPCAQLSISSIGVVGTAEDNRSHSAHFFEFLTKELALGQDRILIRFFPLESWQIGKIGTVMTFL
B2: C56S MIF-2 bound to Ebselen (Cys23 covalently modified) (natural protein, human, UniProt P30046 1-118, looked up)
chain: MPFLELDTNLPANRVPAGLEKRLCAAAASILGKPADRVNVTVRPGLAMALSGSTEPSAQLSISSIGVVGTAEDNRSHSAHFFEFLTKELALGQDRILIRFFPLESWQIGKIGTVMTFL
modifications: Cys23 covalently modified by Ebselen
B3: MIF-2 C56S variant (natural protein, human, UniProt P30046 1-118, looked up)
chain: MPFLELDTNLPANRVPAGLEKRLCAAAASILGKPADRVNVTVRPGLAMALSGSTEPSAQLSISSIGVVGTAEDNRSHSAHFFEFLTKELALGQDRILIRFFPLESWQIGKIGTVMTFL
B4: WT MIF-2 bound to Ebselen (Cys23 covalently modified) (natural protein, human, UniProt P30046 1-118, looked up)
chain: MPFLELDTNLPANRVPAGLEKRLCAAAASILGKPADRVNVTVRPGLAMALSGSTEPCAQLSISSIGVVGTAEDNRSHSAHFFEFLTKELALGQDRILIRFFPLESWQIGKIGTVMTFL
modifications: Cys23 covalently modified by Ebselen

Target: the molecule itself
Assay: NMR spin relaxation

Stoichiometry N, 3:
B1
B2
B3
B4
